Biological target: T1, tau phosphorylated by TPK II (Homo sapiens, UniProt P10636)
T1 construct: Human recombinant tau 1-383 isoform; made in house; host or cells: tau and p20: E. coli; cdk5: baculovirus-infected insect cells
Assay: Gel-shift assay of TPK II tau phosphorylation
Type: biochemical
Conditions: 3 μM tau, 50 nM TPK II, 60 μM Aβ peptide, 4 hours, FIG. 8
Description: Gel-shift assays were done by incubating 3 μM tau with 50 nM TPK II and/or 167 units/ml TPK I for the indicated time at 37° C. in a total volume of 20 μl containing 40 mM Tris, pH 7.5, 10 mM MgCl2, 1 mM DTT, and 1 mM ATP. Aβ peptides were added at 10× concentrations to the assay to achieve the final concentration indicated. Following incubation the samples were electrophoresed on 12% SDS-PAGE and stained with Coomassie Blue R-250.

T1 sequence (P10636 1-383 isoform P10636-6): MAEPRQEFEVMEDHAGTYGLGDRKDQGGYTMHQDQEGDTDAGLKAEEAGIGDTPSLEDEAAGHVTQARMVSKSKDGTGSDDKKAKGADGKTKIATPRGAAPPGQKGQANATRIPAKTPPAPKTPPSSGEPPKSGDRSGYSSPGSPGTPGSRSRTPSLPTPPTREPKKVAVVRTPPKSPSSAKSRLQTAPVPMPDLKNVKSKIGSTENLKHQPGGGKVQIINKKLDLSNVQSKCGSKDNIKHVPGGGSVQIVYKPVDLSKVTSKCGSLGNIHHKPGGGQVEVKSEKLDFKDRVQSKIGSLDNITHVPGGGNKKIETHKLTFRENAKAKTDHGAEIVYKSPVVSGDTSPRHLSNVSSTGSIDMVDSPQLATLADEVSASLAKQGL

Aβ 1-40: beta-amyloid peptide, residues 1-40, obtained from Bachem; control peptide
effect on tau gel shift: no effect

Aβ 25-35: beta-amyloid peptide fragment 25-35, obtained from Bachem; control peptide (GSNKGAIIGLM)
effect on tau gel shift: no effect

Source: US20020164657A1, “Assays for assessing A beta-Tau aggregation” (priority 2001, published 2002)
